Experimental findings from the Human Domainome abundance scans (Beltran et al. 2025) are described below.

± gives the uncertainty stated by the source.

The nature of the data set: abundance fitness (aPCA) (normalised: wild type 0, dead -1); higher = more abundant; growth selection in yeast, the domain comes from the species named. The following applies: Homo sapiens.
As for “Scaffold attachment factor B1 R60N, Q15424”, the abundance fitness was -0.326 ± 0.11. In the case of “Scaffold attachment factor B1 R60P, Q15424” it was -0.492 ± 0.072. In the case of “Scaffold attachment factor B1 R60Q, Q15424” it was -0.445 ± 0.081. Consider “Scaffold attachment factor B1 R60S, Q15424”, for which the abundance fitness is -0.321 ± 0.076.

In turn, “Scaffold attachment factor B1 R60T, Q15424” registered an abundance fitness of -0.268 ± 0.081. The figure for “Scaffold attachment factor B1 R60V, Q15424” is -0.432 ± 0.069; for “Scaffold attachment factor B1 R60W, Q15424” it is -1.17 ± 0.065; for “Scaffold attachment factor B1 R60Y, Q15424” it is -0.642 ± 0.11. Substance “Scaffold attachment factor B1 S32C, Q15424” returned an abundance fitness of -0.32 ± 0.077. The figure for “Scaffold attachment factor B1 S32D, Q15424” is -0.236 ± 0.088. The figure for “Scaffold attachment factor B1 S32E, Q15424” is -0.419 ± 0.11; for “Scaffold attachment factor B1 S32F, Q15424” it is -0.344 ± 0.083. “Scaffold attachment factor B1 S32G, Q15424” showed an abundance fitness of -0.235 ± 0.064. In the case of “Scaffold attachment factor B1 S32H, Q15424” it was -0.493 ± 0.1; in that of “Scaffold attachment factor B1 S32K, Q15424”, -0.173 ± 0.088. In the case of “Scaffold attachment factor B1 S32L, Q15424” it was -0.294 ± 0.071; in that of “Scaffold attachment factor B1 S32M, Q15424”, -0.21 ± 0.067. In the case of “Scaffold attachment factor B1 S32N, Q15424” it was -0.59 ± 0.1.

The substance “Scaffold attachment factor B1 S32P, Q15424” yielded an abundance fitness of -0.514 ± 0.083. In the case of “Scaffold attachment factor B1 S32R, Q15424” it was -0.114 ± 0.057; in that of “Scaffold attachment factor B1 S32T, Q15424”, -0.217 ± 0.089; in that of “Scaffold attachment factor B1 S32V, Q15424”, -0.174 ± 0.059. The figure for “Scaffold attachment factor B1 S32W, Q15424” is -0.419 ± 0.053; for “Scaffold attachment factor B1 S32Y, Q15424” it is -0.331 ± 0.082; for “Scaffold attachment factor B1 S50A, Q15424” it is -0.2 ± 0.062. In the case of “Scaffold attachment factor B1 S50C, Q15424” it was -0.226 ± 0.072. Substance “Scaffold attachment factor B1 S50E, Q15424” showed an abundance fitness of -0.278 ± 0.078. “Scaffold attachment factor B1 S50F, Q15424”: the abundance fitness is -0.259 ± 0.08.

The substance “Scaffold attachment factor B1 S50G, Q15424” displayed an abundance fitness of -0.257 ± 0.063. In the case of “Scaffold attachment factor B1 S50H, Q15424” it was -0.099 ± 0.072; in that of “Scaffold attachment factor B1 S50I, Q15424”, -0.292 ± 0.096.

Consider “Scaffold attachment factor B1 S50K, Q15424”, for which the abundance fitness is -0.558 ± 0.11. In the case of “Scaffold attachment factor B1 S50L, Q15424” it was -0.234 ± 0.058; in that of “Scaffold attachment factor B1 S50M, Q15424”, -0.302 ± 0.097; in that of “Scaffold attachment factor B1 S50N, Q15424”, -0.316 ± 0.091.

Turning to “Scaffold attachment factor B1 S50P, Q15424”, the abundance fitness was -0.191 ± 0.058.

“Scaffold attachment factor B1 S50Q, Q15424” had an abundance fitness of -0.166 ± 0.086. Take “Scaffold attachment factor B1 S50R, Q15424”: the abundance fitness was -0.365 ± 0.06. Consider “Scaffold attachment factor B1 S50T, Q15424”, for which the abundance fitness is -0.312 ± 0.093.

Substance “Scaffold attachment factor B1 S50V, Q15424” displayed an abundance fitness of -0.236 ± 0.068. The substance “Scaffold attachment factor B1 S50W, Q15424” came in with an abundance fitness of -0.226 ± 0.068. The figure for “Scaffold attachment factor B1 S50Y, Q15424” is -0.248 ± 0.074; for “Scaffold attachment factor B1 S51A, Q15424” it is -0.299 ± 0.071. On to “Scaffold attachment factor B1 S51C, Q15424”, for which the abundance fitness is -0.217 ± 0.07. As to “Scaffold attachment factor B1 S51E, Q15424”, the abundance fitness was -0.247 ± 0.078. Turning to “Scaffold attachment factor B1 S51F, Q15424”, the abundance fitness is -0.389 ± 0.085. In the case of “Scaffold attachment factor B1 S51G, Q15424” it was -0.111 ± 0.058; in that of “Scaffold attachment factor B1 S51H, Q15424”, -0.26 ± 0.11. The figure for “Scaffold attachment factor B1 S51I, Q15424” is -0.153 ± 0.089. “Scaffold attachment factor B1 S51K, Q15424” showed an abundance fitness of -0.327 ± 0.093. The figure for “Scaffold attachment factor B1 S51L, Q15424” is -0.197 ± 0.061. In the case of “Scaffold attachment factor B1 S51M, Q15424” it was -0.284 ± 0.07. The figure for “Scaffold attachment factor B1 S51N, Q15424” is -0.167 ± 0.1; for “Scaffold attachment factor B1 S51P, Q15424” it is -0.879 ± 0.11. In turn, “Scaffold attachment factor B1 S51Q, Q15424” gave an abundance fitness of -0.271 ± 0.079.

Substance “Scaffold attachment factor B1 S51R, Q15424” showed an abundance fitness of -0.141 ± 0.076. The figure for “Scaffold attachment factor B1 S51T, Q15424” is -0.326 ± 0.081; for “Scaffold attachment factor B1 S51V, Q15424” it is -0.118 ± 0.061; for “Scaffold attachment factor B1 S51W, Q15424” it is -0.55 ± 0.088. In the case of “Scaffold attachment factor B1 S51Y, Q15424” it was -0.472 ± 0.11. As to “Scaffold attachment factor B1 S55A, Q15424”, the abundance fitness is -0.207 ± 0.076. In the case of “Scaffold attachment factor B1 S55D, Q15424” it was -0.187 ± 0.082; in that of “Scaffold attachment factor B1 S55E, Q15424”, -0.092 ± 0.069. In the case of “Scaffold attachment factor B1 S55F, Q15424” it was -0.223 ± 0.054.

The substance “Scaffold attachment factor B1 S55G, Q15424” returned an abundance fitness of -0.144 ± 0.066.

Turning to “Scaffold attachment factor B1 S55H, Q15424”, the abundance fitness is -0.291 ± 0.091. The figure for “Scaffold attachment factor B1 S55I, Q15424” is -0.261 ± 0.09. Regarding “Scaffold attachment factor B1 S55K, Q15424”, the abundance fitness was -0.229 ± 0.093. The figure for “Scaffold attachment factor B1 S55L, Q15424” is -0.147 ± 0.049.
